PMC10434055, “Functional Characterization of Small Alarmone Synthetase and Small Alarmone Hydrolase Proteins from Treponema denticola” (Microbiology Spectrum, 2023)
Where two headings read alike, the source gives them in different places.

Tests used:
[1] = target: Treponema denticola small alarmone synthetase Tde-SAS (TDE1711) (Treponema denticola ATCC 35405); assay: SEC; size-exclusion chromatography of the purified recombinant protein; oligomeric state from the apparent MW against the monomer's calculated MW; column and buffer not given
[2] = target: Treponema denticola small alarmone hydrolase Tde-SAH (TDE1690) (Treponema denticola ATCC 35405); assay: as above
Tde-SAS = tested on: T1, Tde-SAS; assay: AMP by-product quantified by Mono Q anion-exchange chromatography; format: biochemical, Treponema denticola; conditions: 5 mM ATP, 10 mM MgCl2, pH 8.8, 37 °C, no added alarmone
T1 construct: gene TDE1711; full length, 410 aa; pET28a recombinant in E. coli BL21(DE3), IMAC purified; recombinant MW 51,318 Da; homotetramer (SEC ~220 kDa)

Tde-SAS1–246 = tested on: T2, Tde-SAS1–246; assay: as above; format: biochemical, Treponema denticola; conditions: 5 mM ATP, 10 mM MgCl2, pH 8.8, 37 °C, no added alarmone
T2 construct: gene TDE1711; N-terminal catalytic domain, residues 1-246, TPR domain removed; pET28a recombinant in E. coli BL21(DE3), IMAC purified; recombinant MW 32,557 Da; homotetramer (SEC ~160 kDa)

[3] = target: Tde-SAS_(1–246), catalytic domain of Treponema denticola small alarmone synthetase (Treponema denticola ATCC 35405); assay: SEC; size-exclusion chromatography of the purified recombinant protein; oligomeric state from the apparent MW against the monomer's calculated MW; column and buffer not given
[4] = substrate: Nc1nc2c(ncn2[C@@H]2O[C@H](COP(=O)(O)O)[C@@H](OP(=O)(O)OP(=O)(O)O)[C@H]2O)c(=O)[nH]1; assay: pyrophosphatase-coupled continuous spectrophotometric phosphate-release assay (EnzChek, MESG/PNP); format: biochemical, Treponema denticola; conditions: 1 mM MnCl2, pH 8.4, 37 °C
[5] = substrate: Nc1nc2c(ncn2[C@@H]2O[C@H](COP(=O)(O)OP(=O)(O)OP(=O)(O)O)[C@@H](OP(=O)(O)OP(=O)(O)O)[C@H]2O)c(=O)[nH]1; assay: as above; format: biochemical, Treponema denticola; conditions: 1 mM MnCl2, pH 8.4, 37 °C
[6] = substrate: Nc1nc2c(ncn2[C@@H]2O[C@H](COP(=O)(O)OP(=O)(O)O)[C@@H](OP(=O)(O)OP(=O)(O)O)[C@H]2O)c(=O)[nH]1; assay: as above; format: biochemical, Treponema denticola; conditions: 1 mM MnCl2, pH 8.4, 37 °C

Molecule: Treponema denticola small alarmone synthetase Tde-SAS (TDE1711) (enzyme)
- stoichiometry N [1]: 4

Molecule: Treponema denticola small alarmone hydrolase Tde-SAH (TDE1690) (enzyme)
- stoichiometry N [2]: 2

Molecule: Nc1nc2c(ncn2[C@@H]2O[C@H](COP(=O)(O)O)[C@@H](O)[C@H]2O)c(=O)[nH]1 [GMP]
- Km (Tde-SAS; read-out: Km(GMP)): 11.7 ± 1.69 mM
- Km (Tde-SAS1–246; read-out: Km(GMP)): 3.44 ± 0.6 mM

Molecule: Nc1nc2c(ncn2[C@@H]2O[C@H](COP(=O)(O)OP(=O)(O)OP(=O)(O)O)[C@@H](O)[C@H]2O)c(=O)[nH]1 [GTP]
- Km (Tde-SAS; read-out: Km(GTP)): 6.09 ± 1.01 mM
- Km (Tde-SAS1–246; read-out: Km(GTP)): 2.91 ± 0.75 mM

Molecule: Nc1nc2c(ncn2[C@@H]2O[C@H](COP(=O)(O)OP(=O)(O)O)[C@@H](O)[C@H]2O)c(=O)[nH]1 [GDP]
- Km (Tde-SAS; read-out: Km(GDP)): 5.29 ± 2.61 mM
- Km (Tde-SAS1–246; read-out: Km(GDP)): 1.03 ± 0.3 mM

Molecule: Tde-SAS_(1–246), catalytic domain of Treponema denticola small alarmone synthetase (domain or fragment)
- stoichiometry N [3]: 4

B1: Tde-SAH (Treponema denticola ATCC 35405) (protein)
chain: MLSFDSNKEFALTRDLGVLKGIYLAPYMQVATALIGKARHAGGNMFRHQVDTMAILIDYGYIDSVLLKASLIHDVIEDIEDFNVNEILSIDSESGQVYELVLEVTKKKGQEKTEYLKNIIKNGSEKAKILKCADRISNMISLGFVTDSEFIERYCNETELYIFPIALEVNFEMYKELMALVVSRRQYLVECGYLEERVKKMRKAR
notes: full length (205 aa in the introduction, 210 aa in the abstract); pET28a recombinant in E. coli BL21(DE3), IMAC purified; recombinant MW 27,091 Da; homodimer (SEC ~44 kDa)
- Km [4]: 0.12 mM
- kcat [4]: 0.54 ± 0.04 s⁻¹
- Km [5]: 0.21 mM
- Km [6]: 0.11 mM
- kcat [6]: 0.79 ± 0.07 s⁻¹
